Assay results published in US20250147035A1, “METHODS FOR DETECTION OF POST-TRANSLATIONAL MODIFICATIONS” (Quantum-Si Incorporated, priority 2023, published 2025).
Like-named read-outs stand apart in the source and are kept apart here. Primed or numbered codes have the meaning given here. Where no end group is shown, it is not given here. [ ]: non-standard residue; d: D form. pS = N[C@@H](COP(=O)(O)O)C(=O)O; Biotin′ = not defined here

B1: PM04 (Human/14-3-3 protein gamma) (other)
chain: MVDREQLVQKARLAEQAERYDDMAAAMKNVTELNEPLSNEERNLLSVAYKNVVGARRSSWRVISSIEQKTSADGNEKKIEMVRAYREKIEKELEAVCQDVLSLLDNYLIKNCSETQYESKVFYLKMKGDYYRYLAEVATGEKRATVVESSEKAYSEAHEISKEHMQPTHPIRLGLALNYSVFYYEIQNAPEQACHLAKTAFDDAIAELDTLNEDSYKDSTLIMQLLRDNLTLWTSDQQDDDGGEGNN
B2: PM17 (Human/DIDO1) (other)
chain: MTLFLSRLSTIWKGFINMQSVAKFVTKAYPVSGCFDYLSEDLPDTIHIGGRIAPKTVWDYVGKLKSSVSKELCLIRFHPATEEEEVAYISLYSYFSSRGRFGVVANNNRHVKDLYLIPLSAQDPVPSKLLPFEGPGLESPRPNIILGLVICQKIKRPANS
B3: PM01 (Human/14-3-3 protein epsilon) (other)
chain: MDDREDLVYQAKLAEQAERYDEMVESMKKVAGMDVELTVEERNLLSVAYKNVIGARRASWRIISSIEQKEENKGGEDKLKMIREYRQMVETELKLICCDILDVLDKHLIPAANTGESKVFYYKMKGDYHRYLAEFATGNDRKEAAENSLVAYKAASDIAMTELPPTHPIRLGLALNFSVFYYEILNSPDRACRLAKAAFDDAIAELDTLSEESYKDSTLIMQLLRDNLTLWTSDMQGDGEEQNKEALQDVEDENQ
B4: PM11 (Human/TOPBP1) (other)
chain: MVYNMVMSDVTISCTSLEKEKREEVHKYVQMMGGRVYRDLNVSVTHLIAGEVGSKKYLVAANLKKPILLPSWIKTLWEKSQEKKITRYTD
B5: PM22 (Schizosaccharomyces pombe/FCP1) (other)
chain: MKQKVLKGCRLLFSGVIPLGVDVLSSDIAKWAMSFGAEVVLDFSVPPTHLIAAKIRTEKVKKAVSMGNIKVVKLNWLTESLSQWKRLPESDYLL
B6: PM22: Schizosaccharomyces pombe/FCP1, SEQ ID NO: 22 (protein)
chain: B5 chain

Tests used:
[1] = target: T1, p…-Biotin; experiment: Octet (BLI), fixed reagent concentration
T1 sequence (peptide, phosphothreonine at 1; C-terminal Biotin): TAKLDEESILKQ

[2] = target: T2, …-Biotin; experiment: Octet (BLI), fixed reagent concentration
T2 sequence (peptide, C-terminal Biotin): SAKLDEESILKQ

[3] = test system: p[…]-Biotin; experiment: Octet binding assay of PTM-specific affinity reagent candidates, pTQR peptide; details: fixed concentration of reagent
Experimental: This Example characterizes an exemplary phosphorylated threonine recognizer for use in methods of the disclosure. Octet binding assays at a fixed concentration of PTM-specific affinity reagent candidates were evaluated for binding with phospho-threonine, phospho-serine containing peptides (p[…]-Biotin; p[…]-Biotin; p[…]-Biotin), and control peptides without modifications ([…]-Biotin; […]-Biotin).

[4] = test system: SAKLDEESILKQ-Biotin; experiment: Octet binding assay of PTM-specific affinity reagent candidates, SA control peptide; set-up: unit not given here; details: fixed concentration of reagent
From the text: This Example characterizes an exemplary phosphorylated threonine recognizer for use in methods of the disclosure.

[5] = target: T3, pSAKLDEESILKQ-Biotin; experiment: Octet (BLI), fixed reagent concentration;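 note: octet binding of candidate PTM-specific affinity reagents, each at one fixed concentration, to biotinylated phospho-Thr or phospho-Ser peptides, with unmodified biotinylated peptides serving as controls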
T3 peptide: [pS]AKLDEESILKQ-{Biotin′}
Experimental: Octet binding assays at a fixed concentration of PTM-specific affinity reagent candidates were evaluated for binding with phospho-threonine, phospho-serine containing peptides (p[sequence]-Biotin; p[sequence]-Biotin; p[sequence]-Biotin), and control peptides without modifications ([sequence]-Biotin; [sequence]-Biotin).

Molecule	Octet binding assay response [2]	Octet binding assay response [5]	further results
PM08 (Human/DLG4) (from UniProt P78352 426-724)	0.3		Octet binding assay response [1]: 1.2
PM15 (Human/Pin1) (from UniProt Q13526 1-163)	0.5		
PM02: Human/14-3-3 protein theta, SEQ ID NO: 2			Octet binding assay response, pTQR [3]: 0.5
PM15: Human/Pin1, SEQ ID NO: 15			Octet binding assay response, pTQR [3]: 7.4; Octet binding assay response, SA ([4]; SA = […]-Biotin (control)): 0.5
PM03: Human/14-3-3 protein eta, SEQ ID NO: 3			Octet binding assay response, pTQR [3]: 0.4; Octet binding assay response, SA ([4]; SA = […]-Biotin (control)): 0.3
PM08: Human/DLG4, SEQ ID NO: 8			Octet binding assay response, pTQR [3]: 1.2
PM09 (Human/BRCA1 Tandem domain) (from UniProt P38398 1646-1859)	0.1		
PM16 (Human/PLK1) (from UniProt P53350 326-603)	0.5		Octet binding assay response ([1]; pTA phosphothreonine peptide): 1.7; Octet binding assay response ([1]; pTQR phosphothreonine peptide): 2.1
B1	0.1	0.1	
B2	0.2	0.2	
B3	0.2	0.2	
B4	0.2	0.2	
B5	0.2	0.1	
B6			Octet binding assay response, SA ([4]; SA = SAKLDEESILKQ-Biotin (control)): 0.2
